This data set can be described thus: Enzyme reactivity to prodrugs before and after attachment to colloidal gold (UV/Vis, NADH oxidation at 340 nm, hydroxylamine formation at 420 nm). The class given is biochemical. To be noted: for Specific activity: CB1954 prodrug, excess NADH, 37° C., bound samples on 20 nm gold colloid at molar ratio 87:1 enzymes:gold; for Retained activity (%): compared to the same concentration of enzyme free in solution, CB1954, molar ratio 87:1 enzymes:gold. The method, then:
The ability of the different nitroreductases to metabolise the selected prodrugs is assessed as the conversion of NADH to NAD^+ by UV-vis spectra. The kinetic parameters of the purified enzymes are measured by UV-vis spectra before and after their attachment to gold particles based on their ability to use NADH or an alternative cofactor such as for example nicotinic acid riboside for the reduction of the prodrugs.
For these experiments, a 300 molar equivalents of enzyme were incubated with gold colloid, as this appeared to be the minimum amount of enzyme to cover the gold nanoparticle surface as determined by UV/Vis spectrometry, electrophoresis, and stability experiments. 3.206 nmol of the NfnB and cys-NfnB enzymes in ultra pure water were incubated with 1.5 ml 20 nm Naked Gold® (7.125×10^−3 μM) at a temperature of 4° C. overnight. As controls, the same treatment was carried out for NfnB and cys-NfnB in the absence of gold colloid. The next day the solutions were divided in half and each made up to a total volume of 970 μl using ultra pure water. To each sample, 20 μl of NADH (10 mM) were added and incubated at a temperature of 37° C. for 5 min. The absorbance spectra (750 nm-200 nm) were recorded every 1.5 min for 20 min upon the addition of 10 μl CB 1954 (10 mM) or 20 μl SN 23862 (5 mM) to the test sample, and an equivalent volume of dimethyl sulfoxide (DMSO) to the reference solution. The oxidation of NADH, measured as the decrease at 340 nm, was used as an indication of reactivity of the enzyme for the substrate. The reactivity experiments were done for enzyme: gold conjugate solutions and for enzymes free in solution.
The ability of both recombinant NfnB and cys-NfnB to activate the CB1954 prodrug, before and after attachment to the gold colloid were compared. The free enzyme is known to be active as a dimer in which each monomer is closely associated with a flavin mononucleotide (FMN) molecule, and has two substrate binding pockets as explained in Lovering et al. (Lovering A. L., Hyde E. I., Searle P. F. and White S. A., in Journal of Molecular Biology, 309: 203-213, 2001) or in Zenno et al. (Zenno S, Koike H, Tanokura M and Saigo' K, in Journal of Biochemistry, 120: 736-744, 1996). […]
The formation of hydroxylamine products was monitored at 420 nm using UV/Vis spectroscopy in the presence of enzyme and excess NADH as previously described. […]
It was observed that both the NADH and CB1954 substrates were consumed in the presence of recombinant NfnB, with the simultaneous production of the hydroxylamine product. The same experiment was performed for recombinant NfnB immobilised onto the gold colloid at a molar ratio of 87:1 enzymes to gold, to ensure that any activity measured was not due to excess enzyme free in solution. […]

B1: NfnB (unbound): his-tagged wildtype NfnB nitroreductase from Escherichia coli K12, free in solution (protein, UniProt P38489 1-217, looked up)
Oxygen-insensitive NAD(P)H …: MDIISVALKRHSTKAFDASKKLTPEQAEQIKTLLQYSPSSTNSQPWHFIVASTEEGKARVAKSAAGNYVFNERKMLDASHVVVFCAKTAMDDVWLKLVVDQEDADGRFATPEAKAANDKGRKFFADMHRKDLHDDAEWMAKQVYLNVGNFLLGVAALGLDAVPIEGFDAAILDAEFGLKEKGYTSLVVVPVGHHSVEDFNATLPKSRLPQNITLTEV
modifications: His tag
notes: his-tagged wildtype NfnB nitroreductase from Escherichia coli K12, free in solution
For B1, the Specific activity was 0.169 µmol/min/mg and the “Retained activity (%)” value is recorded as 100%.

B2: NfnB (bound to gold): recombinant NfnB nitroreductase immobilised onto 20 nm gold colloid (conjugate, UniProt P38489 1-217, looked up)
Oxygen-insensitive NAD(P)H …: B1 Oxygen-insensitive NAD(P)H …
modifications: immobilised on gold colloid
notes: recombinant NfnB nitroreductase immobilised onto 20 nm gold colloid
With B2, the Specific activity is 0.168 µmol/min/mg and the “Retained activity (%)” value is 99.5%.
